Earlier results, collected in paper PMC11924945.

Target: CD47 (Homo sapiens) (UniProt Q08722)
Sequence (Q08722 19-323): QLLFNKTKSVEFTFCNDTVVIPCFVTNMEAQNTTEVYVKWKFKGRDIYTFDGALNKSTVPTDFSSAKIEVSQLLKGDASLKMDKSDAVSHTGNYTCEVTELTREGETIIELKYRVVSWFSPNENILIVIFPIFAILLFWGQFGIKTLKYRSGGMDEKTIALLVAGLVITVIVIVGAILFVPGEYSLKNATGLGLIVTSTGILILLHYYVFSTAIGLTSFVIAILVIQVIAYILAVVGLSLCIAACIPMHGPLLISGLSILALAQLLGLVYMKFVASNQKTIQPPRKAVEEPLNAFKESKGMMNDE

Chain of SIRPα allele 2 (P78324 31-373): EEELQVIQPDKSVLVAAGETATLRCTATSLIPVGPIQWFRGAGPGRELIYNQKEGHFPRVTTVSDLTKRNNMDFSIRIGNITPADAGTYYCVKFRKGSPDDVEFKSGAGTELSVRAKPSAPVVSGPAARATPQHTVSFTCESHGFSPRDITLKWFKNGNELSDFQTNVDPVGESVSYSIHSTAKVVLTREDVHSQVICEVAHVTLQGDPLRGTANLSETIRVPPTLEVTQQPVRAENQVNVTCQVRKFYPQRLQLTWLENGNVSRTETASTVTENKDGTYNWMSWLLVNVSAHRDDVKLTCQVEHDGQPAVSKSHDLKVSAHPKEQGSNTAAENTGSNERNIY

## SIRPα allele 2 (from UniProt P78324)
  Kd: 1000 nM
